Among the data in paper PMC6802635 are fold affinity relative to WT HSP70 values, retold here.

The target of the experiment is NRLLLTG peptide. Put plainly: ELISA; 150 ng NRLLLTG peptide coated on the plate in 0.05 M sodium carbonate pH 9.6; HSP70 protein added in a dose-dependent manner; detected with anti-HSP70 antibody, TMB, 450 nm. A general note: ELISA stands for enzyme-linked immunosorbent assay.

The substance “purified HSP70 S385D/S400D double phospho-mimetic mutant (from UniProt P0DMV8 1-641) (natural protein)” came in with a fold affinity relative to WT HSP70 of 1.5 fold.
